Reference: US20260176319A1 (KALLYOPE, published 2026)
Starred links: 1 amine or outer side, 2 acyl side, 3 side chain; linkers in the order of their positions; H or OH if unused. Non-standard residues stand in square brackets, D forms with d. *: point of attachment. Trp(7-F) = N[C@@H](Cc1c[nH]c2c(F)cccc12)C(=O)O; Trp(7-Me) = Cc1cccc2c(C[C@H](N)C(=O)O)c[nH]c12; d(γGlu) = O=C(O)[C@@H](CCC(=O)[*:2])N[*:1]; C18 diacid = O=C(O)CCCCCCCCCCCCCCCCC(=O)*; γGlu = O=C(O)[C@H](CCC(=O)[*:2])N[*:1]; 2Nal = N[C@@H](Cc1ccc2ccccc2c1)C(=O)O; Palmitoyl = CCCCCCCCCCCCCCCC(=O)*; 3Pal = N[C@@H](Cc1cccnc1)C(=O)O; 4Pal = N[C@@H](Cc1ccncc1)C(=O)O; Nle = CCCC[C@H](N)C(=O)O; AEEA = NCCOCCOCC(=O)O; Sar = CNCC(=O)O

Target: human GRP receptor (human, UniProt P30550 1-384)
Assay: cell-based or functional assay

Sequence of human GRP receptor (P30550 whole entry): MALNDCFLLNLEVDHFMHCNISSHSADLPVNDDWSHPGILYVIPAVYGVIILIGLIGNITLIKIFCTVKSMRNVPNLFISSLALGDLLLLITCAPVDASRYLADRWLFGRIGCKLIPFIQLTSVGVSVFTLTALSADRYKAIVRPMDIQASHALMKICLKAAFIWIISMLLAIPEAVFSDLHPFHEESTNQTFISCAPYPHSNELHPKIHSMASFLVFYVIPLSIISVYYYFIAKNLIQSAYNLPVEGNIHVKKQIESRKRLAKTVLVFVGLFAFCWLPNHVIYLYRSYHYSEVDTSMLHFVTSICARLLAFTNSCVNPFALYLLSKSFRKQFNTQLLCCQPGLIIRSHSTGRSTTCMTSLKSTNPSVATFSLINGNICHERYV

B1: Peptide 93 (peptide)
peptide: Palmitoyl-[γGlu][AEEA][AEEA]GNH[2Nal]AVAHL[Nle]-NH2
SMILES: CCCCCCCCCCCCCCCC(=O)N[C@@H](CCC(=O)NCCOCCOCC(=O)NCCOCCOCC(=O)NCC(=O)N[C@@H](CC(N)=O)C(=O)N[C@@H](Cc1c[nH]cn1)C(=O)N[C@@H](Cc1ccc2ccccc2c1)C(=O)N[C@@H](C)C(=O)N[C@H](C(=O)N[C@@H](C)C(=O)N[C@@H](Cc1c[nH]cn1)C(=O)N[C@@H](CC(C)C)C(=O)N[C@@H](CCCC)C(N)=O)C(C)C)C(=O)O
hIP1 GRPR EC50: 6.95 nM

B2: Peptide 99 (peptide)
peptide: {C18 diacid}-[γGlu][AEEA][AEEA]GNH[2Nal]AV[dA]HL[Nle][Sar]-NH2
SMILES: CCCC[C@H](NC(=O)[C@H](CC(C)C)NC(=O)[C@H](Cc1c[nH]cn1)NC(=O)[C@@H](C)NC(=O)[C@@H](NC(=O)[C@H](C)NC(=O)[C@H](Cc1ccc2ccccc2c1)NC(=O)[C@H](Cc1c[nH]cn1)NC(=O)[C@H](CC(N)=O)NC(=O)CNC(=O)COCCOCCNC(=O)COCCOCCNC(=O)CC[C@H](NC(=O)CCCCCCCCCCCCCCCCC(=O)O)C(=O)O)C(C)C)C(=O)N(C)CC(N)=O
hIP1 GRPR EC50: > 10000 nM

B3: Peptide 7 (peptide)
peptide: Palmitoyl-[d(γGlu)][AEEA][AEEA]GNHWAV[dA]HL[Nle]-NH2
SMILES: CCCCCCCCCCCCCCCC(=O)N[C@H](CCC(=O)NCCOCCOCC(=O)NCCOCCOCC(=O)NCC(=O)N[C@@H](CC(N)=O)C(=O)N[C@@H](Cc1c[nH]cn1)C(=O)N[C@@H](Cc1c[nH]c2ccccc12)C(=O)N[C@@H](C)C(=O)N[C@H](C(=O)N[C@H](C)C(=O)N[C@@H](Cc1c[nH]cn1)C(=O)N[C@@H](CC(C)C)C(=O)N[C@@H](CCCC)C(N)=O)C(C)C)C(=O)O
hIP1 GRPR EC50: 0.6 nM

B4: Peptide 90 (peptide)
peptide: {C18 diacid}-[γGlu][AEEA][AEEA][AEEA][AEEA]GNH[Trp(7-Me)]AV[dA]HL[Nle]-NH2
SMILES: CCCC[C@H](NC(=O)[C@H](CC(C)C)NC(=O)[C@H](Cc1c[nH]cn1)NC(=O)[C@@H](C)NC(=O)[C@@H](NC(=O)[C@H](C)NC(=O)[C@H](Cc1c[nH]c2c(C)cccc12)NC(=O)[C@H](Cc1c[nH]cn1)NC(=O)[C@H](CC(N)=O)NC(=O)CNC(=O)COCCOCCNC(=O)COCCOCCNC(=O)COCCOCCNC(=O)COCCOCCNC(=O)CC[C@H](NC(=O)CCCCCCCCCCCCCCCCC(=O)O)C(=O)O)C(C)C)C(N)=O
hIP1 GRPR EC50: 12.6 nM

B5: Peptide 89 (peptide)
peptide: Palmitoyl-[γGlu][AEEA][AEEA]GRHWAV[dA]HL[Nle]-NH2
SMILES: CCCCCCCCCCCCCCCC(=O)N[C@@H](CCC(=O)NCCOCCOCC(=O)NCCOCCOCC(=O)NCC(=O)N[C@@H](CCCNC(=N)N)C(=O)N[C@@H](Cc1c[nH]cn1)C(=O)N[C@@H](Cc1c[nH]c2ccccc12)C(=O)N[C@@H](C)C(=O)N[C@H](C(=O)N[C@H](C)C(=O)N[C@@H](Cc1c[nH]cn1)C(=O)N[C@@H](CC(C)C)C(=O)N[C@@H](CCCC)C(N)=O)C(C)C)C(=O)O
hIP1 GRPR EC50: 1.57 nM

B6: Peptide 91 (peptide)
peptide: Palmitoyl-[γGlu][AEEA][AEEA][AEEA][AEEA]GN[3Pal][Trp(7-Me)]AV[dA]HL[Nle]-NH2
SMILES: CCCCCCCCCCCCCCCC(=O)N[C@@H](CCC(=O)NCCOCCOCC(=O)NCCOCCOCC(=O)NCCOCCOCC(=O)NCCOCCOCC(=O)NCC(=O)N[C@@H](CC(N)=O)C(=O)N[C@@H](Cc1cccnc1)C(=O)N[C@@H](Cc1c[nH]c2c(C)cccc12)C(=O)N[C@@H](C)C(=O)N[C@H](C(=O)N[C@H](C)C(=O)N[C@@H](Cc1c[nH]cn1)C(=O)N[C@@H](CC(C)C)C(=O)N[C@@H](CCCC)C(N)=O)C(C)C)C(=O)O
hIP1 GRPR EC50: 3.72 nM

B7: Peptide 94 (peptide)
peptide: Palmitoyl-[γGlu][AEEA][AEEA]GN[4Pal]WAV[dA]HL[Nle]-NH2
SMILES: CCCCCCCCCCCCCCCC(=O)N[C@@H](CCC(=O)NCCOCCOCC(=O)NCCOCCOCC(=O)NCC(=O)N[C@@H](CC(N)=O)C(=O)N[C@@H](Cc1ccncc1)C(=O)N[C@@H](Cc1c[nH]c2ccccc12)C(=O)N[C@@H](C)C(=O)N[C@H](C(=O)N[C@H](C)C(=O)N[C@@H](Cc1c[nH]cn1)C(=O)N[C@@H](CC(C)C)C(=O)N[C@@H](CCCC)C(N)=O)C(C)C)C(=O)O
hIP1 GRPR EC50: 1.45 nM

B8: Peptide 96 (peptide)
peptide: Palmitoyl-[γGlu][AEEA][AEEA]GNHWAV[dA]HL[Nle]-NH2
SMILES: CCCCCCCCCCCCCCCC(=O)N[C@@H](CCC(=O)NCCOCCOCC(=O)NCCOCCOCC(=O)NCC(=O)N[C@@H](CC(N)=O)C(=O)N[C@@H](Cc1c[nH]cn1)C(=O)N[C@@H](Cc1c[nH]c2ccccc12)C(=O)N[C@@H](C)C(=O)N[C@H](C(=O)N[C@H](C)C(=O)N[C@@H](Cc1c[nH]cn1)C(=O)N[C@@H](CC(C)C)C(=O)N[C@@H](CCCC)C(N)=O)C(C)C)C(=O)O
hIP1 GRPR EC50: 1.58 nM

B9: Peptide 86 (peptide)
peptide: {C18 diacid}-[γGlu][AEEA][AEEA]GNH[Trp(7-F)]AV[dA]HL[Nle]-NH2
SMILES: CCCC[C@H](NC(=O)[C@H](CC(C)C)NC(=O)[C@H](Cc1c[nH]cn1)NC(=O)[C@@H](C)NC(=O)[C@@H](NC(=O)[C@H](C)NC(=O)[C@H](Cc1c[nH]c2c(F)cccc12)NC(=O)[C@H](Cc1c[nH]cn1)NC(=O)[C@H](CC(N)=O)NC(=O)CNC(=O)COCCOCCNC(=O)COCCOCCNC(=O)CC[C@H](NC(=O)CCCCCCCCCCCCCCCCC(=O)O)C(=O)O)C(C)C)C(N)=O
hIP1 GRPR EC50: 17.6 nM

B10: Peptide 85 (peptide)
peptide: {C18 diacid}-[γGlu][AEEA][AEEA]GNH[Trp(7-Me)]AV[dA]HL[Nle]-NH2
SMILES: CCCC[C@H](NC(=O)[C@H](CC(C)C)NC(=O)[C@H](Cc1c[nH]cn1)NC(=O)[C@@H](C)NC(=O)[C@@H](NC(=O)[C@H](C)NC(=O)[C@H](Cc1c[nH]c2c(C)cccc12)NC(=O)[C@H](Cc1c[nH]cn1)NC(=O)[C@H](CC(N)=O)NC(=O)CNC(=O)COCCOCCNC(=O)COCCOCCNC(=O)CC[C@H](NC(=O)CCCCCCCCCCCCCCCCC(=O)O)C(=O)O)C(C)C)C(N)=O
hIP1 GRPR EC50: 14.7 nM

B11: Peptide 88 (peptide)
peptide: {C18 diacid}-[γGlu][AEEA][AEEA]GRHWAV[dA]HL[Nle]-NH2
SMILES: CCCC[C@H](NC(=O)[C@H](CC(C)C)NC(=O)[C@H](Cc1c[nH]cn1)NC(=O)[C@@H](C)NC(=O)[C@@H](NC(=O)[C@H](C)NC(=O)[C@H](Cc1c[nH]c2ccccc12)NC(=O)[C@H](Cc1c[nH]cn1)NC(=O)[C@H](CCCNC(=N)N)NC(=O)CNC(=O)COCCOCCNC(=O)COCCOCCNC(=O)CC[C@H](NC(=O)CCCCCCCCCCCCCCCCC(=O)O)C(=O)O)C(C)C)C(N)=O
hIP1 GRPR EC50: 5.51 nM

B12: Peptide 98 (peptide)
peptide: {C18 diacid}-[γGlu][AEEA][AEEA][AEEA][AEEA]GNHWAV[dA]HL[Nle]-NH2
SMILES: CCCC[C@H](NC(=O)[C@H](CC(C)C)NC(=O)[C@H](Cc1c[nH]cn1)NC(=O)[C@@H](C)NC(=O)[C@@H](NC(=O)[C@H](C)NC(=O)[C@H](Cc1c[nH]c2ccccc12)NC(=O)[C@H](Cc1c[nH]cn1)NC(=O)[C@H](CC(N)=O)NC(=O)CNC(=O)COCCOCCNC(=O)COCCOCCNC(=O)COCCOCCNC(=O)COCCOCCNC(=O)CC[C@H](NC(=O)CCCCCCCCCCCCCCCCC(=O)O)C(=O)O)C(C)C)C(N)=O
hIP1 GRPR EC50: 11.2 nM

B13: Peptide 87 (peptide)
peptide: Palmitoyl-[γGlu][AEEA][AEEA]GNH[Trp(7-F)]AV[dA]HL[Nle]-NH2
SMILES: CCCCCCCCCCCCCCCC(=O)N[C@@H](CCC(=O)NCCOCCOCC(=O)NCCOCCOCC(=O)NCC(=O)N[C@@H](CC(N)=O)C(=O)N[C@@H](Cc1c[nH]cn1)C(=O)N[C@@H](Cc1c[nH]c2c(F)cccc12)C(=O)N[C@@H](C)C(=O)N[C@H](C(=O)N[C@H](C)C(=O)N[C@@H](Cc1c[nH]cn1)C(=O)N[C@@H](CC(C)C)C(=O)N[C@@H](CCCC)C(N)=O)C(C)C)C(=O)O
hIP1 GRPR EC50: 1.73 nM

B14: Peptide 95 (peptide)
peptide: {C18 diacid}-[γGlu][AEEA][AEEA][AEEA][AEEA]GN[3Pal][Trp(7-Me)]AV[dA]HL[Nle]-NH2
SMILES: CCCC[C@H](NC(=O)[C@H](CC(C)C)NC(=O)[C@H](Cc1c[nH]cn1)NC(=O)[C@@H](C)NC(=O)[C@@H](NC(=O)[C@H](C)NC(=O)[C@H](Cc1c[nH]c2c(C)cccc12)NC(=O)[C@H](Cc1cccnc1)NC(=O)[C@H](CC(N)=O)NC(=O)CNC(=O)COCCOCCNC(=O)COCCOCCNC(=O)COCCOCCNC(=O)COCCOCCNC(=O)CC[C@H](NC(=O)CCCCCCCCCCCCCCCCC(=O)O)C(=O)O)C(C)C)C(N)=O
hIP1 GRPR EC50: 110 nM

B15: Peptide 97 (peptide)
peptide: {C18 diacid}-[γGlu][AEEA][AEEA]GNHWAV[dA]HL[Nle]-NH2
SMILES: CCCC[C@H](NC(=O)[C@H](CC(C)C)NC(=O)[C@H](Cc1c[nH]cn1)NC(=O)[C@@H](C)NC(=O)[C@@H](NC(=O)[C@H](C)NC(=O)[C@H](Cc1c[nH]c2ccccc12)NC(=O)[C@H](Cc1c[nH]cn1)NC(=O)[C@H](CC(N)=O)NC(=O)CNC(=O)COCCOCCNC(=O)COCCOCCNC(=O)CC[C@H](NC(=O)CCCCCCCCCCCCCCCCC(=O)O)C(=O)O)C(C)C)C(N)=O
hIP1 GRPR EC50: 8.91 nM

GNHWAVXHLX (Gly-Asn-His-Trp-Ala-Val-D-Ala-His-Leu-Nle-NH2) [Peptide 6]
hIP1 GRPR EC50: 26.8 nM
